We go through eleven molecules from patent US20230176070A1 (published 2023).

The labels stand for the following.
B1: G36 (VHH)
VHH: QMGRNSAQVQLVESGGSLRLSCAASGFALSNSYMKWVRQAPGKGPEWVSTIYADGSTYYTDSVKGRFITSRDNSKNTMYLQMSDLKPEDTAVYYCANPSAKGQGTQVTVSS
B2: G29 (VHH)
VHH: QVQLVESGGGLVQAGDSLLLSCGTSGRTFSSNTMGWFRQAPGKGREFVATITASGRGTNYGDSVRGRFTISRDNDKNTVYLQMNNLKPDDTGVYTCAASDSPYGSRWIEAYGYWGQGTQVTVSS
B3: G87 (VHH)
VHH: EVQLVESGGGLVQAGDSLRLSCAASGRTFSSYNLGWFRQAPGKEREFVAVMNCRYGDTDYPDSVKGRFTMSRDNAKNTLYLEMNNLKPEDTAVYYCAAKVLAYCGSGYYYRRNDYGYWGQGTQVTVSS
B4: G5 (VHH)
VHH: EVQLVESGGGVVQPGGSLTLSCAASGFAFRNYAMSWVRQAPGKGPEWVSQINGRGGYTSYADSVKGRFTISRDNTKNTLYLQMNNLKPDDTAVYYCAKDPTQLRWIPVPNYILGSTKGQGTQVTVSS
B5: G6 (VHH)
VHH: QVQLVESGGGLVQAGGSLRLSCAASGRTISSYAMGWFRQAPGKERELVARITSSAGSTYYADSVKGRFTISRDNAKNTMYLQMNSLKPEDTAVYYCAVEIVRAQYDYWGQGTQVTVSS
B6: G81 (VHH)
VHH: EVQLVESGGELVQAGGSLRLSCAASGRTDSVTRMAWFRQAPGKEREFVAAITWSSGYTYYPDSVKGRFTISRDNAKNTMYLQMNSLKAEDTAVYICAAAVGVISEYNSWGQGTQVTVSS
B7: G76 (VHH)
VHH: QVQLVESGGGLVQPGGSLRLSCVVSGFPFSEYAMSWVRQTPEKGREWVSGIYTDGSETLYENSVKGRFTISRDNTKNTLYLQMNNLKPEDTARYYCKLGDPYGVGLRDYEYLGHGTQVTVSS
B8: G38 (VHH)
VHH: EVQLVESGGGLVQAGGSLRLSCVASGHTDCISGMGWYRQAPGKERELVAVLIGGGNTYYGDSVKGRFTISKDKAKNTLYLQMKTLKPEDMAVYYCTADDHGSECPNKEMSSTATYWGQGTQVTVSS
B9: G33 (VHH)
VHH: QMGRNSAEVQLVESGGSLRLSCSVSGGPFTSNGMGWYRQAPGKEREWVAAITNSGSANYADSVKGRFTVSMVNANNTMYLQMNNLKPDDTAVYYCNVAGWPHGYWGQGTQVTVSS
B10: G85 (VHH)
VHH: HVQLVESGGGLVQPGGSLRLSCAASGFTFSTYAMGWVRQAPGKGPEWVATIYSKGDTTHYANSAKGRFTISRDNARNTLYLQMNSLKPEDTAVYYCAKGISDSYLRVESNYRGQGTQVTVSS
B11: G32 (VHH)
VHH: QVQLVESGGGLVRAGDSLRLSCVVSGRPISSYAMAWFRQAPGKDREVVAGISANGDRTHYADSIKGRFTVSRDNAKNSMTLQMNKLKPEDTAVYYCAADSLTEGGYGLTGDFDYWGQGTQVTVSS

T1 sequence (P08515 whole entry): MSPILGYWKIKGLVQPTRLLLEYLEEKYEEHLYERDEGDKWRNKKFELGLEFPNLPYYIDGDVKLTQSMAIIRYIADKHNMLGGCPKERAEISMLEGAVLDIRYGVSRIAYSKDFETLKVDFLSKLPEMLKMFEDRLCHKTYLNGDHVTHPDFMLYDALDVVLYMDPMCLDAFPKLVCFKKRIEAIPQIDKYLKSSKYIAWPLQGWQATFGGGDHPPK

This experiment has as its target T1, glutathione S-transferase (UniProt P08515 1-218 = GST).
T1 construct: Expressed in E. coli, purified on GSH resin; also called GST
Kind of experiment: indirect ELISA, GST coated.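 Note: nanobody dilution series starting at 10 µM binding plate-bound antigen, HRP anti-His or anti-T7 tag detection, TMB absorbance at 450 nm, logIC50 from four-parameter logistic fit.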
Experimental: Indirect ELISA was carried out to evaluate the camelid immune response of an antigen and to quantify the relative affinities of antigen-specific Nbs. An antigen was coated onto a 96-well ELISA plate (R&D system) at an amount of approximately 1-10 ng per well in a coating buffer (15 mM sodium carbonate, 35 mM sodium bicarbonate, pH 9.6) overnight at 4° C. The well surface was then blocked with a blocking buffer (DPBS, 0.05% Tween 20, 5% milk) at room temperature for 2 hours. To test an immune response, the immunized serum was serially 5-fold diluted in the blocking buffer. The diluted sera were incubated with the antigen coated wells at room temperature for 2 hours. HRP-conjugated secondary antibodies against llama Fc (Bethyl) were diluted 1:10,000 in the blocking buffer and incubated with each well for 1 hour at room temperature. […] Nbs of both specific binders for test and scramble negative controls were serially 10-fold diluted from 10 μM to 1 μM in the blocking buffer. HRP-conjugated secondary antibodies against His-tag (Genscript) or T7-tag (Thermo) were diluted 1:5,000 or 1:10,000 in the blocking buffer and incubated for 1 hour at room temperature. Three washes with 1x PBST (DPBS, 0.05% Tween 20) were carried out to remove nonspecific absorbance between incubations. After the final wash, the samples were further incubated under dark with freshly prepared w3,3′,5,5′-Tetramethylbenzidine (TMB) substrate for 10 mins at room temperature to develop the signals. After the STOP solution (R&D system), the plates were read at multiple wavelengths (450 nm and 550 nm) on a plate reader (Multiskan GO, Thermo Fisher). A false positive Nb binder was defined if any of the following two criteria was met: i) the ELISA signal can only be detected at a concentration of 10 μM and was under detected at 1 μM concentration. ii) At 1 μM concentration, a pronounced signal decrease (by more than 10-fold) was detected compared to the signal at 10 μM, while there were no signals can be detected at lower concentrations. The raw data was processed by Prism 7 (GraphPad) to fit into a 4PL curve and to calculate logIC50.
With B1, the binding result was “no binding (tested: Nb titrated from 10 µM)”.

Turning to B2, the binding result is “no binding (tested: Nb titrated from 10 µM)”.

In the case of B3, the binding result is “no binding (tested: Nb titrated from 10 µM)”.

As for B4, the binding result is reported as “no binding (tested: Nb titrated from 10 µM)”.

For B5, the binding result was “no binding (tested: Nb titrated from 10 µM)”.

For the molecule B6, the binding result is given as “no binding (tested: Nb titrated from 10 µM)”.

Turning to B7, the binding result is on record as “no binding (tested: Nb titrated from 10 µM)”.

For B8, the binding result is listed as “no binding (tested: Nb titrated from 10 µM)”.

Turning to B9, the binding result was “no binding (tested: Nb titrated from 10 µM)”.

For B10, the binding result was “no binding (tested: Nb titrated from 10 µM)”.

Take B11: the binding result is listed as “no binding (tested: Nb titrated from 10 µM)”.
